Experimental data: patent publication US20200262877A1, “ION CHANNEL-BINDING PEPTIDES AND METHODS OF USE THEREOF” (priority 2017, published 2020)

Legend:
[1] = biological target: T1, Nav1.7 (Homo sapiens, UniProt Q15858); assay: cell-based; format: cell-based; settings: 100% = no change; for Activity of Nav1.7 with peptide, expressed as a percentage of the reference compound: peptide at 0.2 μM; for Activity of Nav1.7 with peptide (percentage of the reference compound): peptide at 20 μM
T1 construct: host or cells: HEK293 or CHO

[2] = test system: GABA; assay: Ion channel panel (IonWorks Barracuda): GABA; format: cell-based; settings: 100% = no change, <100% = inhibition
In short: (§1)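 Peptides were tested in duplicate at final 20 μM and 200 nM, with concentration set by amino acid analysis, in HEPES-buffered saline. They were applied for at least 5 min to HEK293 or CHO cells transfected with each channel. Currents were expressed as % inhibition, 1-(Ipeptide/Icontrol)×100, or % activation, Ipeptide/Icontrol×100, against a channel-matched reference compound.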

[3] = biological target: T2, α4β2 (Homo sapiens, UniProt P17787+P43681); assay: Ion channel panel (IonWorks Barracuda): α4β2; format: cell-based; settings: 100% = no change, <100% = inhibition
T2 construct: host or cells: HEK293 or CHO
In short: as §1

[4] = biological target: hERG (Homo sapiens, UniProt Q12809); assay: in vitro; settings: 100% = no change, <100% = inhibition
In short: as §1

[5] = biological target: Nav1.5 (Homo sapiens, UniProt Q14524); assay: in vitro; settings: 100% = no change; for Activity of Nav1.5 with peptide, expressed as a percentage of the reference compound: peptide at 0.2 μM; for Activity of Nav1.5 with peptide (percentage of the reference compound): peptide at 20 μM
In short: as §1

[6] = biological target: T3, Kir2.1 (Homo sapiens, UniProt P63252); assay: Ion channel panel (IonWorks Barracuda): Kir2.1; format: cell-based; settings: 100% = no change, <100% = inhibition
T3 construct: host or cells: HEK293 or CHO
In short: as §1

[7] = biological target: T4, NR2A (Homo sapiens, UniProt Q12879); assay: Ion channel panel (IonWorks Barracuda): NR2A; format: cell-based; settings: 100% = no change, <100% = inhibition
T4 construct: host or cells: HEK293 or CHO
In short: as §1

[8] = biological target: T5, TRPA1 (Homo sapiens, UniProt O75762); assay: Ion channel panel (IonWorks Barracuda): TRPA1; format: cell-based; settings: 100% = no change, <100% = inhibition
T5 construct: host or cells: HEK293 or CHO
In short: as §1

[9] = biological target: T6, Cav2.2 (Homo sapiens, UniProt Q00975); assay: cell-based; settings: 100% = no change, <100% = inhibition
T6 construct: host or cells: HEK293 or CHO
In short: as §1

[10] = biological target: T7, Kv2.1 (Homo sapiens, UniProt Q14721); assay: cell-based; settings: 100% = no change, <100% = inhibition
T7 construct: host or cells: HEK293 or CHO
In short: as §1

[11] = biological target: T8, Cav2.1 (Homo sapiens, UniProt O00555); assay: cell-based; settings: 100% = no change, <100% = inhibition
T8 construct: host or cells: HEK293 or CHO
In short: as §1

[12] = biological target: T9, α3β4 (Homo sapiens, UniProt P30926+P32297); assay: Ion channel panel (IonWorks Barracuda): α3β4; format: cell-based; settings: 100% = no change, <100% = inhibition
T9 construct: host or cells: HEK293 or CHO
In short: as §1

[13] = biological target: T10, NR2B (Homo sapiens, UniProt Q13224); assay: Ion channel panel (IonWorks Barracuda): NR2B; format: cell-based; settings: 100% = no change, <100% = inhibition
T10 construct: host or cells: HEK293 or CHO
In short: as §1

[14] = biological target: T11, Kv1.1 (Homo sapiens, UniProt Q09470); assay: cell-based; format: cell-based; settings: 100% = no change, <100% = inhibition
T11 construct: host or cells: HEK293 or CHO
In short: as §1

[15] = biological target: T12, Kv1.3 (Homo sapiens, UniProt P22001); assay: cell-based; format: cell-based; settings: 100% = no change, <100% = inhibition
T12 construct: host or cells: HEK293 or CHO
In short: as §1

[16] = biological target: T13, Kv1.2 (Homo sapiens, UniProt P16389); assay: cell-based; format: cell-based; settings: 100% = no change, <100% = inhibition
T13 construct: host or cells: HEK293 or CHO
In short: as §1

[17] = biological target: T14, TRPV1 (Homo sapiens, UniProt Q8NER1); assay: Ion channel panel (IonWorks Barracuda): TRPV1; format: cell-based; settings: 100% = no change, <100% = inhibition
T14 construct: host or cells: HEK293 or CHO
In short: as §1

[18] = biological target: T15, 5HT3a (Homo sapiens, UniProt P46098); assay: Ion channel panel (IonWorks Barracuda): 5HT3a; format: cell-based
T15 construct: host or cells: HEK293 or CHO
T15 sequence (P46098 whole entry, looked up): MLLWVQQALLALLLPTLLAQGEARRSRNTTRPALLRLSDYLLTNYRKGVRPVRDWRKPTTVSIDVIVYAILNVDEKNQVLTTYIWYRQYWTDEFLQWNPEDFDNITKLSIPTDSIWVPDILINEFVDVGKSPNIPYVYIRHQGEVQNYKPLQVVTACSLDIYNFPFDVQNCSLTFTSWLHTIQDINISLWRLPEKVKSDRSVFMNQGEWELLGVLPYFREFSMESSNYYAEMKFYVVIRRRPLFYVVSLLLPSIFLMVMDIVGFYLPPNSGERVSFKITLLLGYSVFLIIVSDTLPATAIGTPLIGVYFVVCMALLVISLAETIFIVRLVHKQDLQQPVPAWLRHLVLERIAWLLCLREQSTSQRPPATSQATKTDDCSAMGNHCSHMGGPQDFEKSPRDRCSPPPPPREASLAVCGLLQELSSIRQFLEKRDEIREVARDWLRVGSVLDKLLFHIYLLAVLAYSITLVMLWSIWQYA
In short: as §1

[19] = first of two Nav1.7 columns (probably TP1)
[20] = second of two Nav1.7 columns (probably TP2)
[21] = first of two Nav1.5 columns (probably TP1)
[22] = second of two Nav1.5 columns (probably TP2)

T1 sequence (Q15858 whole entry): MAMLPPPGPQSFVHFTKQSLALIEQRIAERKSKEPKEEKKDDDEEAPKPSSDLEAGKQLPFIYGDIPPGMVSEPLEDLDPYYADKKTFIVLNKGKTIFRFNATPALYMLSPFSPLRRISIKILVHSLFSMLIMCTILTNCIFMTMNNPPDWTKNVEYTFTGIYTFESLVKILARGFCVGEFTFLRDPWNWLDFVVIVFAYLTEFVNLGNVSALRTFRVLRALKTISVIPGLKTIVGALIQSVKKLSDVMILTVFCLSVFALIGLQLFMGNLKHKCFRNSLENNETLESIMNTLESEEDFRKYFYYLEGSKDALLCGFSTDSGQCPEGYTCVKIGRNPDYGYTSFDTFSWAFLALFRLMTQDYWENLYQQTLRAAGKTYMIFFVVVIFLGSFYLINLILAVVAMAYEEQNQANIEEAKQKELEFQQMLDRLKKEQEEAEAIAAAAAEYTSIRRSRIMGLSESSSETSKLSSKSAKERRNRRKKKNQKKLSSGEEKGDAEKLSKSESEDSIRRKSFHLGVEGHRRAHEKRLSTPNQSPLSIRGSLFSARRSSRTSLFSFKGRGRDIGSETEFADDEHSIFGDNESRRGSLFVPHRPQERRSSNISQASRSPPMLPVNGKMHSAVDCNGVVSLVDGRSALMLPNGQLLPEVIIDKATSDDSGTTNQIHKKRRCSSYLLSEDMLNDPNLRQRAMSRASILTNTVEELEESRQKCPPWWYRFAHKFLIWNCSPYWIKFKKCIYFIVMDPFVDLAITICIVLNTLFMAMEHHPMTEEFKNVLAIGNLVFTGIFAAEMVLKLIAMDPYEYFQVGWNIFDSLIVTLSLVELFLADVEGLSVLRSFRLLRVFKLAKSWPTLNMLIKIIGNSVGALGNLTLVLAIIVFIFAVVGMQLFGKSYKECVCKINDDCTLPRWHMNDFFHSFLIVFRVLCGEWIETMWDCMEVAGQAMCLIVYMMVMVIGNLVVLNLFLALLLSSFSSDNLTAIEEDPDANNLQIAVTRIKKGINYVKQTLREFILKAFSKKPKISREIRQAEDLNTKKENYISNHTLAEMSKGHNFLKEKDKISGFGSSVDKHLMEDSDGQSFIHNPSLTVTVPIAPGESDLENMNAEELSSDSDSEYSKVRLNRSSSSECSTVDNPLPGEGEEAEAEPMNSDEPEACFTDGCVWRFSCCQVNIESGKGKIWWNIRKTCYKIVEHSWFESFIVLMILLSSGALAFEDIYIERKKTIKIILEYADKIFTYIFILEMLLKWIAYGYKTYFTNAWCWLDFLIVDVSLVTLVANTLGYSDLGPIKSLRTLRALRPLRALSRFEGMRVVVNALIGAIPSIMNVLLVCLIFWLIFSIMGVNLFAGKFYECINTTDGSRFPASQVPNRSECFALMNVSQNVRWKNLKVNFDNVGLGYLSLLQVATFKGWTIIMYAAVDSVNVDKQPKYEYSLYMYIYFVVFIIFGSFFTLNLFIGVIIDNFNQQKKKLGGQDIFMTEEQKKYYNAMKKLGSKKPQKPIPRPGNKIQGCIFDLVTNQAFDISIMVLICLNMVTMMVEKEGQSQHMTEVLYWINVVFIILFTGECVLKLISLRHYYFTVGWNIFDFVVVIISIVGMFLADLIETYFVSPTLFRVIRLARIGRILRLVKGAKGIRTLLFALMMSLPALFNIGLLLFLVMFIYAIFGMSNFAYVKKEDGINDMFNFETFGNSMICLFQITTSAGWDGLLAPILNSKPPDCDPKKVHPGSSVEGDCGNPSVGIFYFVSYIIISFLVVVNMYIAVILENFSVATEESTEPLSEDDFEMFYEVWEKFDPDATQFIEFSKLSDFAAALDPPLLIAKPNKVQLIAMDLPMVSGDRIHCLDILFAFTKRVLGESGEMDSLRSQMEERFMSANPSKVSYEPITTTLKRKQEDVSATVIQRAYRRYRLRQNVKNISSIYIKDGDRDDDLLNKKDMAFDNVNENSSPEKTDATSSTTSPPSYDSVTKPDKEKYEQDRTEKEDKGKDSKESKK
Sequence of Nav1.5 (Q14524 whole entry): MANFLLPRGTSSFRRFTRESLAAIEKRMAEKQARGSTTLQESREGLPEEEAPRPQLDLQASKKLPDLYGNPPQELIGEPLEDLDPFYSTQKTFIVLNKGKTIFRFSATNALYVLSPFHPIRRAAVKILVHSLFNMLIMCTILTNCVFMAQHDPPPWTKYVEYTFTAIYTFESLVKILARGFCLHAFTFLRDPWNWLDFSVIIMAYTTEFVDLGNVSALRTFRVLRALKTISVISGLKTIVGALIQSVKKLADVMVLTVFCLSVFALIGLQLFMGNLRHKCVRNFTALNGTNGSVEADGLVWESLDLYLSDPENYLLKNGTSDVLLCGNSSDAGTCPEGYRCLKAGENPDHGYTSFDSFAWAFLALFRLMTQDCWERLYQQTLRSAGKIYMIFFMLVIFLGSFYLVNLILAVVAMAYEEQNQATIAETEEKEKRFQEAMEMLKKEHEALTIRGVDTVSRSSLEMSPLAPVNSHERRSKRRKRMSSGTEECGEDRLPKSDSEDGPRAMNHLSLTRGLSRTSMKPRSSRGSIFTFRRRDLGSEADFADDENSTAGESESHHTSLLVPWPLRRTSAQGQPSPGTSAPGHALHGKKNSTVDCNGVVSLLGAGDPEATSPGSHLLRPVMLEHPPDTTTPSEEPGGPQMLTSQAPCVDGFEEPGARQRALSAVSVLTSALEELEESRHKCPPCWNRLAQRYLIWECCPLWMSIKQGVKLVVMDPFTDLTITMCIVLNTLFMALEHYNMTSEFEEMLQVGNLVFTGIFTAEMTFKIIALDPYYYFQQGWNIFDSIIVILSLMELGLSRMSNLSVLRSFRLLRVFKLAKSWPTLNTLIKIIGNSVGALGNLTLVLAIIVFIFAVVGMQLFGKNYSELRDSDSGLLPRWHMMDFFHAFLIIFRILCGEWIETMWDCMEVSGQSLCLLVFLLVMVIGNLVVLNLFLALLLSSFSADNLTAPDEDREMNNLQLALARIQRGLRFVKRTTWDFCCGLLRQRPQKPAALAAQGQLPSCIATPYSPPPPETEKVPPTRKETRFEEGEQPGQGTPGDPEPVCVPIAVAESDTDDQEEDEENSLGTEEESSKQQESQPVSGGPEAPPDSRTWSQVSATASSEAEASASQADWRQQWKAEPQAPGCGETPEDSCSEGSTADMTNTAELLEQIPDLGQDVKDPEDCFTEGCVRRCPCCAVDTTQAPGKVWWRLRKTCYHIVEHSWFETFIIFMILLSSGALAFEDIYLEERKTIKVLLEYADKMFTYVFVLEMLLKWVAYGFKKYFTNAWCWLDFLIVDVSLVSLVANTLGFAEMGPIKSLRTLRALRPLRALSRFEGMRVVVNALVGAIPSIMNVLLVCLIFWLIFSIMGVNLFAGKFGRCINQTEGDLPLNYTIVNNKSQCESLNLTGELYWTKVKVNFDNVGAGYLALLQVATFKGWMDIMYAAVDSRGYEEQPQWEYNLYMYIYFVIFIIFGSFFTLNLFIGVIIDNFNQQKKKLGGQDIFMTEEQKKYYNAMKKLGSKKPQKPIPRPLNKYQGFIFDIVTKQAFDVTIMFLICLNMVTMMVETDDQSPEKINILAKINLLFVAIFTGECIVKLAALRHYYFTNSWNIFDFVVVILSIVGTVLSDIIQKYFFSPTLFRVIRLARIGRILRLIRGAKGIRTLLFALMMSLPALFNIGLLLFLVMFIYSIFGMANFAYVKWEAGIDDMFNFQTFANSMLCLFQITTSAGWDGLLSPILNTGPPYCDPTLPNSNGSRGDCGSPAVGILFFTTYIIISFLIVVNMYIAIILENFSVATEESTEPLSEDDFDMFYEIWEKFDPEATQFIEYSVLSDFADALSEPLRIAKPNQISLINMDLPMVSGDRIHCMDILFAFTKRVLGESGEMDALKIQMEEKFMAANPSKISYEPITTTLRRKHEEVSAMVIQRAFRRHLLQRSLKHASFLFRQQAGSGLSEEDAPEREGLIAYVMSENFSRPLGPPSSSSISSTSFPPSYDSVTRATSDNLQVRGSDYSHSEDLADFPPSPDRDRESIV
T11 sequence (Q09470 whole entry): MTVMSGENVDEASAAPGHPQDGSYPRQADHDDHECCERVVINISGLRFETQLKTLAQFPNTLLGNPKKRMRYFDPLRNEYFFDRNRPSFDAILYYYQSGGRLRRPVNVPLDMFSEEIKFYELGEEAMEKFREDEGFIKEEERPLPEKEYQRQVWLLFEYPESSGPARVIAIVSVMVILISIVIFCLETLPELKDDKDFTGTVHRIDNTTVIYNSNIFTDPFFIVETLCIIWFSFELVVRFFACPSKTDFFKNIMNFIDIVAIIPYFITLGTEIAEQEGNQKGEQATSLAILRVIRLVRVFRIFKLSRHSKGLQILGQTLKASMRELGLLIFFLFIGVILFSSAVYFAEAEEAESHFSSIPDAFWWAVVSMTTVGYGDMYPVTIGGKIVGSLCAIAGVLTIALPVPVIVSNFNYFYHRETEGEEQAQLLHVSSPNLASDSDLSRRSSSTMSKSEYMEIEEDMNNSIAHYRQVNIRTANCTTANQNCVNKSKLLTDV
T13 sequence (P16389 whole entry): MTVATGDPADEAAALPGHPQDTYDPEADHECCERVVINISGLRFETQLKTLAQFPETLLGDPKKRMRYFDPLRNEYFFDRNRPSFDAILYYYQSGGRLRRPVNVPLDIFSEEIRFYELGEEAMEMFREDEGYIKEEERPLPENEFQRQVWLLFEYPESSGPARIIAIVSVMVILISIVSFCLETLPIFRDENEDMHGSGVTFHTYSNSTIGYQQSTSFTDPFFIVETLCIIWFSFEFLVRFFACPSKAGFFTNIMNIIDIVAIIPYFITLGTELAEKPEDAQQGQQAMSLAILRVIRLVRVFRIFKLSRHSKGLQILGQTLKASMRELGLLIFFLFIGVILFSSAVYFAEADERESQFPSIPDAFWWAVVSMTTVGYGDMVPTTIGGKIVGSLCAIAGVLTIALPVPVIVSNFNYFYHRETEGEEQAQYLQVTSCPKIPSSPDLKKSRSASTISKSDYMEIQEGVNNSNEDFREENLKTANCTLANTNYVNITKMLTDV

Substance: 16 (GSQFCGTNGKPCVNGQCCGALRCVVTYHYADGVCLKMNP) [compound 16]
- Activity of Nav1.7 with peptide, expressed as a percentage of the reference compound [1, 19]: 86%
- Activity of Nav1.7 with peptide, expressed as a percentage of the reference compound [1, 20]: 91%
- Activity of Nav1.7 with peptide (percentage of the reference compound) [1, 19]: 66%
- Activity of Nav1.7 with peptide (percentage of the reference compound) [1, 20]: 43%
- Activity of GABA with peptide, expressed as a percentage of the reference compound ([2]; peptide at 0.2 μM): 102%
- Activity of GABA with peptide (percentage of the reference compound) ([2]; peptide at 20 μM): 109%
- Activity of a4b2 with peptide, expressed as a percentage of the reference compound ([3]; peptide at 0.2 μM): 83%
- Activity of a4b2 with peptide (percentage of the reference compound) ([3]; peptide at 20 μM): 72%
- Activity of hERG with peptide, expressed as a percentage of the reference compound ([4]; peptide at 0.2 μM): 74%
- Activity of hERG with peptide (percentage of the reference compound) ([4]; peptide at 20 μM): 71%
- Activity of Nav1.5 with peptide, expressed as a percentage of the reference compound [5, 21]: 107%
- Activity of Nav1.5 with peptide, expressed as a percentage of the reference compound [5, 22]: 104%
- Activity of Nav1.5 with peptide (percentage of the reference compound) [5, 21]: 93%
- Activity of Nav1.5 with peptide (percentage of the reference compound) [5, 22]: 93%
- Activity of Kir2.1 with peptide, expressed as a percentage of the reference compound ([6]; peptide at 0.2 μM): 98%
- Activity of Kir2.1 with peptide (percentage of the reference compound) ([6]; peptide at 20 μM): 92%
- Activity of NR2A with peptide, expressed as a percentage of the reference compound ([7]; peptide at 0.2 μM): 101%
- Activity of NR2A with peptide (percentage of the reference compound) ([7]; peptide at 20 μM): 95%
- Activity of TRPA1 with peptide, expressed as a percentage of the reference compound ([8]; peptide at 0.2 μM): 99%
- Activity of TRPA1 with peptide (percentage of the reference compound) ([8]; peptide at 20 μM): 116%
- Activity of Cav2.2 with peptide, expressed as a percentage of the reference compound ([9]; peptide at 0.2 μM): 124%
- Activity of Cav2.2 with peptide (percentage of the reference compound) ([9]; peptide at 20 μM): 104%
- Activity of Kv2.1 with peptide, expressed as a percentage of the reference compound ([10]; peptide at 0.2 μM): 114%
- Activity of Kv2.1 with peptide (percentage of the reference compound) ([10]; peptide at 20 μM): 98%
- Activity of Cav2.1 with peptide, expressed as a percentage of the reference compound ([11]; peptide at 0.2 μM): 113%
- Activity of Cav2.1 with peptide (percentage of the reference compound) ([11]; peptide at 20 μM): 92%
- Activity of a3b4 with peptide, expressed as a percentage of the reference compound ([12]; peptide at 0.2 μM): 100%
- Activity of a3b4 with peptide (percentage of the reference compound) ([12]; peptide at 20 μM): 95%
- Activity of NR2B with peptide, expressed as a percentage of the reference compound ([13]; peptide at 0.2 μM): 88%
- Activity of NR2B with peptide (percentage of the reference compound) ([13]; peptide at 20 μM): 91%
- Activity of Kv1.1 with peptide, expressed as a percentage of the reference compound ([14]; peptide at 0.2 μM): 84%
- Activity of Kv1.1 with peptide (percentage of the reference compound) ([14]; peptide at 20 μM): 67%
- Activity of Kv1.3 with peptide, expressed as a percentage of the reference compound ([15]; peptide at 0.2 μM): 92%
- Activity of Kv1.3 with peptide (percentage of the reference compound) ([15]; peptide at 20 μM): 92%
- Activity of Kv1.2 with peptide, expressed as a percentage of the reference compound ([16]; peptide at 0.2 μM): 78%
- Activity of Kv1.2 with peptide (percentage of the reference compound) ([16]; peptide at 20 μM): 61%
- Activity of TRPV1 with peptide, expressed as a percentage of the reference compound ([17]; peptide at 0.2 μM): 107%
- Activity of TRPV1 with peptide (percentage of the reference compound) ([17]; peptide at 20 μM): 88%
- Activity of 5HT3a with peptide (percentage of the reference compound) [18]: 103%
- Activity of 5HT3a with peptide, expressed as a percentage of the reference compound [18]: 114%
